System: MS2 coat protein
Assay: apparent KD of MS2 coat protein; designed switch direction (-1 OFF switch, 1 ON switch): 1; higher = weaker reporter binding
Summary of the method: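 Apparent KD, taken as the median over clusters for each design, was obtained by curve-fitting normalised cluster fluorescence. Designed RNA switches had been transcribed on Illumina chips by stalled E. coli RNA polymerase and titrated with SNAP-549-labelled MS2 coat protein, doubling from 0.7 or 1.5 nM to 3 µM.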

[1] = input ligand: microRNA oligo, concentration not stated
[2] = Eterna round: R95, input ligand: FMN 200 uM
[3] = Eterna round: R95, input ligand: microRNA oligo, concentration not stated
[4] = Eterna round: R95, input ligand: none

Row | Sequence | apparent KD of MS2 coat protein (input ligand: FMN 200 uM) | apparent KD of MS2 coat protein [1] | apparent KD of MS2 coat protein (input ligand: none) | apparent KD of MS2 coat protein [2] | apparent KD of MS2 coat protein [3] | apparent KD of MS2 coat protein [4]
1 | CUCAACAACACAGGAUAUCCAGGGAAAAGACCUGGAGAAGGGUGACCAACAUGAGGAUCACCCAUGUGACAGCCAGGCUGUCUG [Esisiszaon] (Eterna round: R96, puzzle: Same State NG 1) | 164 nM | 84.4 nM | 47.7 nM |  |  | 
2 | GAGAGACGAUUAGGAUAUCCGGUGAUAAUGAUAGGAGAAGGAAUUGACAUGAGGAUCACCCAUGUAGGAAUAAUCCAGAGAGAG [Parity 25 - Jieux - Same State NG 1] (Eterna round: R96, puzzle: Same State NG 1) | 51.5 nM | 28.5 nM | 48.8 nM |  |  | 
3 | UGGUACAUGGGAGGAUAUGGGCAAGGGACAUGAGGAUCACCCAUGUAUUAAAUGCCGAGAGGCAUCUAGAAGGCCCAUGUACCU [JL SSNG1 3.88] (Eterna round: R96, puzzle: Same State NG 2) | 17.8 nM | 79.8 nM | 173 nM |  |  | 
4 | GGAUGAUGGACAGGAUAUUGAUUGUAAUGGUGUCAAGAAGGGUCUUUGAUUUAAACGACCAGUUACAUGAGGAUCACCCAUGUU [JR_SSNG1_Sub031] (Eterna round: R96, puzzle: Same State NG 1) | 133 nM | 107 nM | 205 nM |  |  | 
5 | AGUCCAGCGAAAGCUGGACAAAAGCAUGUACAUGAGGAUCACCCAUGUUCAUGUACAAGCUUUUUGCUCGUUUUAAA [JL mod - D95 - 15] (puzzle: Sensor for hsa-mir-208a) |  |  |  | 590 nM | 13.5 nM | 643 nM
6 | CAGCGCUGUCGAGAGGAUAUGCGGUGAUGGACAUGAGGAUCACCCAUGUUAGCGACAGCAUCACGGCAGAAGGCUCUACCGCCUG [Soteed Omei mod 43] (puzzle: Same State 2) |  |  |  | 17.9 nM | 22.4 nM | 32.3 nM
7 | UUACUCAUGUAAGGAUAUGCAGCCGAAACGGCUGCAGAAGGUACUAUAAUACAUGAGGAUCACCCAUGUCAAAAUAAUUAAAAC [Mat - Same State NG 1 - JL mod - D72] (Eterna round: R96, puzzle: Same State NG 1) | 34.8 nM | 26 nM | 26.9 nM |  |  | 
8 | UCUGAUGCCGUAGGAUAUCUAGGAUAUGGACGAGGAUCACCCGAGCAGCAUCAGCGCACCAGAGGAGAGAAGGACGCUUUGGAA [pwkr ssNG2 2F5 2FMN.21] (Eterna round: R96, puzzle: Same State NG 2) | 438 nM | 274 nM | 1190 nM |  |  | 
9 | AGUCCAGCCUGAGCUGGACAAAAGCAUGUACAUGAGGAUCACCCAUGUUCAUGUACAAGCUUUUUGCUCGUCUUACA [salish99_208a_r3_076] (puzzle: Sensor for hsa-mir-208a) |  |  |  | 467 nM | 14.4 nM | 483 nM
10 | UUGAAGAAUUAAGGAUAUUGAUUACAUAUGUUAAACAUGAGGAUCACCCAUGUGGGUUGCGGUAUCGAGAAGGUAAAUUACUAG [Mat - same State NG 2 - JL mod - D76] (Eterna round: R96, puzzle: Same State NG 2) | 63.3 nM | 74.1 nM | 87.3 nM |  |  | 
11 | AGGUGGUGUGGAAAGGAUAUACUGUUGAGGACAUGAGGAUCACCCAUGUGGUAGAGGACGUAAGGGUAGAAGGUUCGGGAUUGGU [JR_SS@_Sub021] (puzzle: Same State 2) |  |  |  | 46.2 nM | 50.2 nM | 75.4 nM
12 | AUUAAUUAAUUAAUACAUGAGGAUCACCCAUGUAAUAAGAUCUAGGAUAUCAGCUCGUUUAGAGCUGAGAAGGAGAUCACAUGU [SSNG3/17-A3] (Eterna round: R96, puzzle: Same State NG 3) |  | 32.7 nM |  |  |  | 
13 | AAUUAAUUAAUUAAUAUACAUGAGGAUCACCCAUGUAAGAUCAAGGAUAUCAGCUCGAUUAGAGCUGAGAAGGUGAUCACAUGU [SSNG3/16-A2] (Eterna round: R96, puzzle: Same State NG 3) |  | 207 nM |  |  |  | 
14 | ACAUGAGAUGGAGGAUAUGUUGUACCUACAUGUGACAUGAGGAUCACCCAUGUGGUAAGUAUGAUACAGAAGGCCAAGAUAUGU [Equivalance 59 - Jieux - Same State NG 2] (Eterna round: R96, puzzle: Same State NG 2) | 16.5 nM | 15.8 nM | 27.2 nM |  |  | 
15 | ACGUGGACGAAAGUCCACGAAUAAGACGAACAUGAGGAUCACCCAUGUGAGGCGAGCUUUUUGUUCGUCUUAUAAAA [Mat - Sensor - Mod - D116] (Eterna round: R96, puzzle: Sensor for hsa-mir-208a) | 73.1 nM | 32.1 nM | 22.6 nM |  |  | 
16 | AUUUCUAAUGCAGGAUAUGAUUAACAUGAGGAUCACCCAUGUGGUGUUGUGAGUAAGGAGAGUGAUCAGAAGGGCAUUUUUUUU [JMF's solution 99] (Eterna round: R96, puzzle: Same State NG 2) | 915 nM | 428 nM | 579 nM |  |  | 
17 | UAGUUACUAUCUCAGGAUAUCAUGUCAAAGACAUGAGGAUCACCCAUGUACCAGGAAACUGGUUAUGAGAAGGGAGAUAGUAACA [Mat - Same State 2 - Mod - D56] (puzzle: Same State 2) |  |  |  | 78.7 nM | 34.2 nM | 38.6 nM
18 | GUAAUCGUUAUAGGAUAUCAUGAGGAUUACCCAUGAGAAGGGUGAUCUCGAUCCAUAUUCAGAAAAUGAAUGUGGAUAGAUUGC [Omei NG1 A v2] (Eterna round: R96, puzzle: Same State NG 1) | 1010 nM | 292 nM | 1150 nM |  |  | 
19 | CAUCCCUCCACAGGAUAUCGACCGAUAAAACGGCGAGAAGGGUGGCCACAUGAGGAUCACCCAUGUGGAAUUGGAUGAGCUACA [Enlaed] (Eterna round: R96, puzzle: Same State NG 1) | 78.7 nM | 66.6 nM | 126 nM |  |  | 
20 | UUAAUUAAUUAAUUAUACAUGAGGAUCACCCAUGUAAGUGAUCAGGAUAUCAGCUCGAUUAGAGCUGAGAAGGGAUACAUGAAU [SSNG3/12-A2] (Eterna round: R96, puzzle: Same State NG 3) | 94.4 nM | 88.3 nM | 139 nM |  |  | 
21 | CCAUAACAGUGAGGAUAUUGUUGCGAUAAGUGACGAGAAGGCAUUCAUGUGAAAUAAACAUACAUGAGGAUCACCCAUGUUGUA [Omei SS(NG)1 Bv2] (Eterna round: R96, puzzle: Same State NG 1) | 17.9 nM | 19.8 nM | 26.7 nM |  |  | 
22 | UUGAAGAAUUAAGGAUAUUGAAUACAUAUGUUUAACAUGAGGAUCACCCAUGUGGGUUGCGGUAUCGAGAAGGUAAAUUAAUAG [Mat - Same State NG 2 - JL mod - D9] (Eterna round: R96, puzzle: Same State NG 2) | 142 nM | 98.4 nM | 118 nM |  |  | 
23 | GCGAAGAGGUAAGGAUAUGCAUGGCGGAGACAUGAGGAUCACCCAUGUUGGAGACGAAAUCUAGGGUAGAAGGUACCGGGAAGC [ssng2 v2 b] (Eterna round: R96, puzzle: Same State NG 2) | 75.4 nM | 70.2 nM | 110 nM |  |  | 
24 | GAGUAGUUGAAAGGAUAUGGAUUAUUGUAGGAUCCAGAAGGUUUUAACAUGAGGAUCACCCAUGUAGGACUAUAUAUGUGAAUA [Parity 96 - Jieux - Same State NG 1] (Eterna round: R96, puzzle: Same State NG 1) | 15.3 nM | 10.2 nM | 15.4 nM |  |  | 
25 | GUACUACAUGAGGAUCACCCAUGUACGCCAGUACGAGGAUAUGCAUGGGCGCUAGCUGGUGCAGAAGGCGUAGUGC [Pin2Pin #6] (puzzle: Same State 1) |  |  |  | 21 nM | 24 nM | 45.5 nM
26 | AUUUUAGUCAGAGGAUAUUGUUUAUCUCUAUUACAAGAAGGCUGAUCUUACUACCCACUUAUGAAACAUGAGGAUCACCCAUGU [JR_SSNG1_Sub016] (Eterna round: R96, puzzle: Same State NG 1) | 17.4 nM | 20.6 nM | 25.8 nM |  |  | 
27 | CCAUGGUAACAUGAGGAUCACCCAUGUACAAGCUUUUUGCUCGUUUUAUUUAUUAUUAUUAUUAUUAUUAUUAUUAA [Nishu_Seq1] (puzzle: Sensor for hsa-mir-208a version 2) |  |  |  | 33.5 nM | 105 nM | 86.6 nM
28 | UUGCGCUGUCGAGAGGAUAUGCGGUGAUGGACAUGAGGAUCACCCAUGUUAGCGAUAGCAUUACGGUAGAAGGCUCUACAGCUGC [salish99_ss2_r3_094] (puzzle: Same State 2) |  |  |  | 13 nM | 21.5 nM | 21.9 nM
29 | UUGAAGAAUUAAGGAUAUUGAUUACAUAUGUUAAACAUGAGGAUCACCCAUGUGGGUUGCGGUAUCGAGAAGGUAAAUUAAUAG [Mat - same State NG 2 - JL mod - D77] (Eterna round: R96, puzzle: Same State NG 2) |  | 89.6 nM |  |  |  | 
30 | UUAUAACAUGAGGAUCACCCAUGUCAUCUAAGUCGAGGAUAUGGGCAAAUAUAAUAAGAACCAGAAGGCGAAUAUU [Mat - Same State 1 - Mod of UCT - D33] (puzzle: Same State 1) |  |  |  | 141 nM | 14.2 nM | 49.9 nM

Reference: the supplement of paper PMC9170038
